Measured values from patent KR20190060702A (dated 2019).

Molecular target: T1, 사람 ICAM4 (intercellular adhesion molecule 4) (human, UniProt Q14773 31-271)
T1 construct: whole, on cells; Always on cells that carry it naturally; no recombinant ICAM4 was used; also called CD242; 1E1 항원
T1 sequence (looked up): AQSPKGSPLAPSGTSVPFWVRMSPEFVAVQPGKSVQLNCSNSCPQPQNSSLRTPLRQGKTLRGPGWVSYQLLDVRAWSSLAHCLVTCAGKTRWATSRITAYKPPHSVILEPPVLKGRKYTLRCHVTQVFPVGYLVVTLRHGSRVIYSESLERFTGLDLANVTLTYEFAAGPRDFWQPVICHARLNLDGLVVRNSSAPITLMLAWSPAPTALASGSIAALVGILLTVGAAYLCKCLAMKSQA
Assay: binding affinity compared with the chimeric antibody (Fig. 5)

B1: 항-ICAM4 인간화항체 VH2A 및 VL2C의 조합 (antibody, V domains shown)
VH: QVQLVESGGGLVKPGGSLRLSCAVSGFSLTDYGVGWIRQAPGKGLEWLGVMWGGGRTYYNAPVKSRLTISKDNAKNSVYLQMNSLRAEDTAVYYCVKTGQDYAVDYWGQGTLVTVSS
VL: EIVLTQSPATLSLSPGERATLSCRASKSVSKYLAWYQEKPGQANRLLIYSGSTLQSGIPARFSGSGSGTDFTLTISSLEPEDFAVYYCQQHNVYPWTFGQGTKVEIK
notes: also called VH2A/VL2C
binding result: binds
